How the values were obtained:
[1] = target: ExsF with the first 23 residues replaced by an N-terminal 6xHis tag (B. paranthracis); experiment: crystal structure
crystal structure = target: the molecule itself; experiment: crystal structure

Molecule	stoichiometry N [1]	stoichiometry N (crystal structure)
ExsF with the first 23 residues replaced by an N-terminal 6xHis tag (domain or fragment)	3	
C-terminal domain of F-BclA (F-BclA-CTD; BTK_RS34675 residues 721-863) (domain or fragment) MHHHHHHSVGLTNYLYVFDTTNQSIAVGSSVTFNTNGPITGTALSHITGTGNIIINTLGTYVAEFQLQASRENQFSLELNGTPIPGGRFGTGSPHSINQGTAAFTVTVVPSTLTLINNTSSAGTITLSNSDGGSLTNVSASISIFQVG		3

Reference: article PMC12357932 (Nature Communications, 2025)
